Assay: soluble on expression in E. coli; label from the status in PepcDB or PDB records

Question: For “MAEEGYKVVLNVYDLSNGLARQLSTSFLGKPIEAIWHTGVVVYGNEYFFGGGIQSLAAGRTPYGRPVRVVEMGETHIPREVFEDYLRDISPRYTAETYRLLSHNCNNFSNEVAQFLVGAGIPDYILNLPAEVMSSPMGPLIMPMIQNLESTLRTNAAPQATQFVPSSVPPPPPPQNKPGEGSSSSKQEDKAAKAKQGSAADPLGGARGKVQEEVMREFAAIMASGTLRASEAAALAMRRVMERHGNATMQQS”, which “soluble on expression in E. coli” value is on record?
Answer: soluble

Question: For “MAEEYSWDSYLNDRLLATNQVSGAGLASEEDGVVYACVAQGEESDPNFDKWSLFYKEDYDIEVEDENGTKTTKTINEGQTILVVFNEGYAPDGVWLGGTKYQFINIERDLEFEGYNFDVATCAKLKGGLHLVKVPGGNILVVLYDEEKEQDRGNSKIAALTFAKELAESSQLQHHHHHH”, which “soluble on expression in E. coli” value is on record?
Answer: soluble

Question: With “MAEGKAGGAAGLFAKQVQKKFSRAQEKVLQKLGKAVETKDERFEQSANNFYQQQAEGHKLYKDLKNFLSAVKVMHESSKRVSETLQEIYSSEWDGHEELKAIVWNNDLLWEDYEEKLADQAVRTMEIYVAQFSEIKERIAKRGRKLVDYDSARHHLEAVQNAKKKDEAKTAKAEEEFNKAQTVFEDLNQELLEELPILYNSRIGCYVTIFQNISNLRDVFYREMSKLNHNLYEVMSKLEKQHSNKVFVVKGLSSSSRRSLVISPPVRTATVSSPLTSPTSPSTLSLKSESESVSATEDLAPDAAQGEDNSEIKELLEEEEIEKEGSEASSSEEDEPLPACNGPAQAQPSPTTERAKSQEEVLPSSTTPSPGGALSPSGQPSSSATEVVLRTRTASEGSEQPKKRASIQRTSAPPSRPPPPRATASPRPSSGNIPSSPTASGGGSPTSPRASLGTGTASPRTSLEVSPNPEPPEKPVRTPEAKENENIHNQNPEELCTSPTLMTSQVASEPGEAKKMEDKEKDNKLISADSSEGQDQLQVSMVPENNNLTAPEPQEEVSTSENPQL” as the sequence, how does the “soluble on expression in E. coli” value read?
Answer: soluble

Question: With “MAEIKHYQFNVVMTCSGCSGAVNKVLTKLEPDVSKIDISLEKQLVDVYTTLPYDFILEKIKKTGKEVRSGKQLAREVILAVHGMTCSACTNTINTQLRALKGVTKCDISLVTNECQVTYDNEVTADSIKEIIEDCGFDCEILRDS” as the sequence, how does the “soluble on expression in E. coli” value read?
Answer: soluble

Question: With “MAEILRAENIKKVIRGYEILKGISLSVKKGEFVSIIGASGSGKSTLLYILGLLDAPTEGKVFLEGKEVDYTNEKELSLLRNRKLGFVFQFHYLIPELTALENVIVPMLKMGKPKKEAKERGEYLLSELGLGDKLSRKPYELSGGEQQRVAIARALANEPILLFADEPTGNLDSANTKRVMDIFLKINEGGTSIVMVTHERELAELTHRTLEMKDGKVVGEITRV” as the sequence, how does the “soluble on expression in E. coli” value read?
Answer: soluble

Question: Which “soluble on expression in E. coli” value does the source give for “MAEINIYQNPGQSLANIYKGFARQCNPGFVFPEAQTIEAWDIPLRLHPEFIPGGDISKADQQYSTLLAQEIANGVTIGFRMVNEKERVCNVEILPLLTSMAQNLDRIKARFGSGYLDRFKGSPNVYPTDVGFSTDASGGISQESGLLVSYGVNLRTLTPGTWQAMTLPEDIKALVGPGVGLRLDAPNFSDVFNTIKSGLRYTTAVTLLLAYFAAI” here?
Answer: soluble

Question: With “MAEIVLTQSPGTQSLSPGERATLSCRASQSVGNNKLAWYQQRPGQAPRLLIYGASSRPSGVADRFSGSGSGTDFTLTISRLEPEDFAVYYCQQYGQSLSTFGQGTKVEVKLVPR” as the sequence, how does the “soluble on expression in E. coli” value read?
Answer: soluble

Question: Which “soluble on expression in E. coli” value does the source give for “MAEKSFKYIILGGGVSAGYAAKEFANQGVQPGELAVISKEAVAPYERPALSKGYLFPEGAARLPGFHCCVGSGGEKLLPESYKQKGIELILSTEIVKADLSAKSLVSATGDVFKYQTLIIATGSTVLRLTDFGVKGADSKNILYLREIDDADKLVEAIKAKKGGKAVVVGGGYIGLELSAVLRINNLDVTMVFPEPWCMPRLFTADIAAFYETYYTNKGVKIIKGTVASGFTAQPNGEVKEVQLKDGRTLEADIVIVGVGAKPLTSLFKGQVEEDKGGIKTDAFFKTSVPDVYAVGDVATFPLKMYGDVRRVEHVDHSRKSAEQAVKAIKAAEGGAAVEEYDYLPFFYSRSFDLSWQFYGDNVGDSVLFGDSNPSNPKPRFGAYWVQGGKVVGAFMEGGSGDENKALAKVAKARPSAESLDELVKQGISFAAKI” here?
Answer: soluble

Question: With “MAELDEAALLGDGNEQHDGPIDENALLDGKELKEEDIDDLYDEAIAPTNSTESAKPVSPTITTVTAPTAGIGAKPATSSEGRKYCCYVGNLLWYTTDADLLKALQSTGLARSQFADMKFFENRTNGQSKGYALLVLNSDAAVKQTMEILPTKTIHGQSPTVLSYNKTNQAKLEDAQAKNQTRPDVKKKGFEEGCVNMGTIRIGAGGQTGRTGTSVSGRSGPPPLMMQQVRPTPLMSQPTSLPSNLNQAPQMRLQINGQQVPLMNRAPVPQQTMLGNGPLGGMNQQIQQQPQMMMGQQVRPMMQTSMGIQPMMGMNAPPPMNNQFQNRPPQLGSMGVQPLMQMNTAMRPPINGLPPVHVNPQMFPGLQGTVLSDAEFEDVMTRNQTVSSSAIARAITDASVGDIKGASETILTAIQLIKNSRIGHDERCRQLVYGLEHTLKGLESKGYSSRSKSHRDRSRSRERDRKRRRRSRTRSRSYSRSPSPRRRRY” as the sequence, how does the “soluble on expression in E. coli” value read?
Answer: soluble

Question: For “MAELDIGQHCQVQHCRQRDFLPFVCDGCSGIFCLEHRSKDSHGCSEVNVVKERPKTDEHKSY”, which “soluble on expression in E. coli” value is on record?
Answer: soluble

Question: For “MAELPAKRRFTRIDRLPPYVFNITSELKMAARRRGEDIIDFSMGNPDGPTPPHIVEKMCSVAQREDTHGYSTSRGIPCLRRAISRWYADRYQVDIDPENEAIVTIGSKEGLAHLMLATLDHGDTVLVPNPSYPIHIYGAVIAGAQVRSVPLTEGIDFFGELERAIRETIPKPKMMILGFPSNPTAQCVELDFFERVVALAKQYDVLVVHDLAYADIVYDGWKAPSIMQVPGAKDIAVEFFTLSKSYNMAGWRIGFMVGNPELVSALARIKSYHDYGTFTPLQVAAIAALEGDQQCVRDIAEQYRQRRNALVRGLHEAGWMVDNPKASMYVWAKIPEPYAHLGSLEFAKRLLAEAKVCVSPGIGFGDYGDTHVRFALIENQDRIRQAVRGIKSMFRADGLLKPGKSSPNEMA”, which “soluble on expression in E. coli” value is on record?
Answer: not soluble

Question: For “MAELQKVDDWLSALLANLEPAARSRMMRQLAQELRRTQQQNIRMQRNPDGSSYEPRRVTARSKKGRIKRQMFAKLRTTKYLKTAASADSASVQFEGKVQSIARVHHYGLRDRVSRKGPEVRYAERRLLGVNDDVEAMTRDMILQWLAG”, which “soluble on expression in E. coli” value is on record?
Answer: not soluble

Question: Which “soluble on expression in E. coli” value does the source give for “MAELRVLVAVKRVIDYAVKIRVKPDRTGVVTDGVKHSMNPFCEIAVEEAVRLKEKKLVKEVIAVSCGPAQCQETIRTALAMGADRGIHVEVPPAEAERLGPLQVARVLAKLAEKEKVDLVLLGKQAIDDDCNQTGQMTAGFLDWPQGTFASQVTLEGDKLKVERAIDGGLETLRLKLPAVVTADLRLNEPRYATLPNIMKAKKKKIEVIKPGDLGVDLTSKLSVISVEDPPQRTAGVKVETTEDLVAKLKEIGRI” here?
Answer: soluble

Question: Which “soluble on expression in E. coli” value does the source give for “MAEPTAKAAPYENLMVPSPSMGRDIPVAFLAGGPHAVYLLDAFNAGPDVSNWVTAGNAMNTLAGKGISVVAPAGGAYSMYTNWEQDGSKQWDTFLSAELPDWLAANRGLAPGGHAAVGAAQGGYGAMALAAFHPDRFGFAGSMSGFLYPSNTTTNGAIAAGMQQFGGVDTNGMWGAPQLGRWKWHDPWVHASLLAQNNTRVWVWSPTNPGASDPAAMIGQAAEAMGNSRMFYNQYRSVGGHNGHFDFPASGDNGWGSWAPQLGAMSGDIVGAIRHHHHHH” here?
Answer: soluble

Question: Which “soluble on expression in E. coli” value does the source give for “MAESSDKLYRVEYAKSGRASCKKCSESIPKDSLRMAIMVQSPMFDGKVPHWYHFSCFWKVGHSIRHPDVEVDGFSELRWDDQQKVKKTAEAGG” here?
Answer: soluble

Question: With “MAEYEFMYIHSLAEHYLQYVLQVPAFESAPSQACRVLQRVAFSVQKEVEKNLKSYLDDFHVESIDTARIIFNQVMEKEFEDGIINWGRIVTIFAFGGVLLKKLPQEQIALDVGAYKQVSSFVAEFIINNTGEWIRRNGGWEDGFIKKFEPKSGWLTFLQMTGQIWEMLFLLK” as the sequence, how does the “soluble on expression in E. coli” value read?
Answer: not soluble

Question: With “MAFKNTKTLVFVLDGKLRNIPIAALFDGQQYLIEKYAVALSPGLQLMAAQSLEQNKIKAIVAGISESRSGFAALPAVESEVKQISQTIPSSMLLNQKFTSQALADRIKSSRADVVHLATHGQFSSRIEDTFLLTWDGQVNVKDLSELLKNRSGDSSKAIELLVLSACDTATGDDRAVLGLAGLAVKSGARSTIATLWPVKDKAAEMLMTRFYDQLRKPKITKAEALRQAQINLIHQTDFQDPFFWSAFVLVGNWLLEHHHHHH” as the sequence, how does the “soluble on expression in E. coli” value read?
Answer: not soluble

Question: With “MAFLLALDQGTTSSRAILFTLEGRPVAVAKREFRQLYPKPGWVEHDPLEIWETTLWAAREVLRRAGAEAGEVLALGITNQRETTLLWDRKTGKPLHNAIVWQDRRTTPLCEALRAKGLEPLFRERTGLLFDPYFSGTKLVWLLENVPGLKARAEGGGVAFGTVDTWLIWNLTGGKVHATDPTNASRTLLFNLHTLAWDPELLEALGIPAALLPEVRPSDGDFGETLPELLGAPVPIRGVLGDQQAALFGQAALGGGEGKCTYGTGAFLLLNTGKRPVLSEKGLLATVAWSLGGRATYALEGSLFVAGAAVGWLKEVGLIRESAEVEALAASVEDTGDVYFVPAFTGLGAPYWDPYARGTLLGLTRGTSRAHLARAALEGVAFQVRDVVLAMEEEAGVRLKVLKADGGMAQNRLFLKIQADLLGVPVAVPEVTETTALGAALMAGVGAGALSPEDVAGRFREAERFLPTMPEGRREALYRRWREAVERAKGWAREG” as the sequence, how does the “soluble on expression in E. coli” value read?
Answer: soluble

Question: For “MAFRVLVIGGYGNFGSLICNHLAMMPDIELVISGRDPRKLAEKVAALQTLAGRFCQSWCVDIMQDGAGSELGELGIDLLIHTAGPFQGQSYAVARHCIAAGVNYCDLSDCRTFVSGIATLDALAREAGVCVLSGCSSVPTLSAAIIDQHRQRFLRIDSIEHGISSAAKMPGLSTVR”, which “soluble on expression in E. coli” value is on record?
Answer: not soluble

Question: For “MAFSASIEDYALIGDQQSAALVARDGSIDWLCLPRFDSPACFAALLGDEHNGKWRIAPKGAGPCTRRAYRTDSLVLDSEWDTPEGTLRVTDLMPQRDSAPDLVRIVEGLRGRVTVRSAIRLRFDYGLEHHHHHH”, which “soluble on expression in E. coli” value is on record?
Answer: not soluble

Question: Which “soluble on expression in E. coli” value does the source give for “MAFSRTHSLLARAGSTSTYKRVWRYWYPLMTRGLGNDEIVFINWAYEEDPPMDLPLEASDEPNRAHINLYHRTATQVDLGGKQVLEVSCGHGGGASYLTRTLHPASYTGLDLNQAGIKLCKKRHRLPGLDFVRGDAENLPFDDESFDVVLNVEASHCYPHFRRFLAEVVRVLRPGGYFPYADLRPNNEIAAWEADLAATPLRQLSQRQINAEVLRGIGNNSQKSRDLVDRHLPAFLRFAGREFIGVQGTQLSRYLEGGELSYRMYCFTKD” here?
Answer: not soluble

Question: Which “soluble on expression in E. coli” value does the source give for “MAFTEHSPLTPHRRDLCSRSIWLARKIRSDLTALTESYVKHQGLNKNINLDSADGMPVASTDQWSELTEAERLQENLQAYRTFHVLLARLLEDQQVHFTPTEGDFHQAIHTLLLQVAAFAYQIEELMILLEYKIPRNEADGMPINVGDGGLFEKKLWGLKVLQELSQWTVRSIHDLRFISSHQTGIP” here?
Answer: soluble

Question: With “MAGDPMKKQFLEKAVFTVAATAATVVLGNKMADADTYTLQEGDSFFSVAQRYHMDAYELASMNGKDITSLILPGQTLTVNGSAAPDNQAAAPTDTTQATTETNDANANTYPVGQCTWGVKAVATWAGDWWGNGGDWASSASAQGYTVGNTPAVGSIMCWTDGGYGHVAYVTAVGEDGKVQVLESNYKDQQWVDNYRGWFDPNNSGTPGSVSYIYPNLEHHHHHH” as the sequence, how does the “soluble on expression in E. coli” value read?
Answer: soluble

Question: Which “soluble on expression in E. coli” value does the source give for “MAGDPMKKTLTVTVSSVLAFLALNNAAHAQQHGTQVKTPVQHNYVSNVQAQTQSPTTYTVVAGDSLYKIALEHHLTLNQLYSYNPGVTPLIFPGDVISLVPQNKVKQTKAVKTPVRKASQAKKVVKQPVQQASKKVVVKQAPKQAVAKTVNVAYKPAQVQKSVPTVPVAHNYNKSVANRGNLYAYGNCTYYAFDRRAQLGRSIGSLWGNANNWNYAAKVAGFKVDKTPEVGAIFQTAAGPYGHVGVVESVNPNGTITVSEMNYAGFNVKSSRTILNPGKYNYIHLEHHHHHH” here?
Answer: not soluble

— the DeepSol protein solubility set
